{"source": "patent US20220195407", "about": "“OPTIMIZATION OF ENGINEERED MEGANUCLEASES FOR RECOGNITION SEQUENCES” (Precision BioSciences, Inc., published 2022)", "assay_in_all_cases": "cell_activity; CHO iGFFP reporter", "key": {"[1]": {"molecular_target": "T1, LOX 3-4 M.15 (artificial (I-CreI derived))", "T1 chain": "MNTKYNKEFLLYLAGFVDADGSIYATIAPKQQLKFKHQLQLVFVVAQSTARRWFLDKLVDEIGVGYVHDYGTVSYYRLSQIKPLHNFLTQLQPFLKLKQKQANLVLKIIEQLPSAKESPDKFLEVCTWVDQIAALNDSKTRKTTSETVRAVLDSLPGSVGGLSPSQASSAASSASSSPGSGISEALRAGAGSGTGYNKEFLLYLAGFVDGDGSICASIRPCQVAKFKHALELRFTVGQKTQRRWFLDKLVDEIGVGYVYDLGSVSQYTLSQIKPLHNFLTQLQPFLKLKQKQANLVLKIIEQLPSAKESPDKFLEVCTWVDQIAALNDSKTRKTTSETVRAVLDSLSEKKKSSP", "description": "(§1) A CHO cell reporter system (see WO/2012/167192, FIG. 3) was used to determine whether the engineered meganucleases generated in these studies could recognize and cleave the modified LOX 3-4 recognition sequences in Table 87. To perform the assay, a pair of CHO cell reporter lines were produced, which carried a non-functional Green Fluorescent Protein (GFP) gene expression cassette integrated into the genome of the cell. The GFP gene in each cell line was interrupted by a pair of recognition sequences such that intracellular cleavage of either recognition sequence by a meganuclease would stimulate a homologous recombination event resulting in a functional GFP gene. In both cell lines, one of the recognition sequences was derived from the LOX 3-4 recognition sequence (i.e., those sequences disclosed in Table 87), and the second recognition sequence was specifically recognized by a control meganuclease called “CHO 23/24.” CHO reporter cells comprising a recognition sequence derived from the LOX 3-4 recognition sequence and the CHO 23/24 recognition sequence are referred to herein as “test cells.”\n(§2) Novel engineered meganucleases derived from the LOX 3-4x.109 meganuclease were prepared by making amino acid substitutions at one or more positions in the first subunit. These engineered meganucleases were then evaluated for cleavage of the LOX 3-4 recognition sequence modified to have a GTAA center sequence (SEQ ID NO: 358) in the CHO reporter assay according to Example 1. Novel meganucleases which were modified to comprise the residues recited in the tables below were capable of cleaving the LOX 3-4 recognition sequence having a GTAA four base pair center sequence."}, "[2]": {"molecular_target": "T2, LOX 3-4 M.23 (artificial (I-CreI derived))", "T2 chain": "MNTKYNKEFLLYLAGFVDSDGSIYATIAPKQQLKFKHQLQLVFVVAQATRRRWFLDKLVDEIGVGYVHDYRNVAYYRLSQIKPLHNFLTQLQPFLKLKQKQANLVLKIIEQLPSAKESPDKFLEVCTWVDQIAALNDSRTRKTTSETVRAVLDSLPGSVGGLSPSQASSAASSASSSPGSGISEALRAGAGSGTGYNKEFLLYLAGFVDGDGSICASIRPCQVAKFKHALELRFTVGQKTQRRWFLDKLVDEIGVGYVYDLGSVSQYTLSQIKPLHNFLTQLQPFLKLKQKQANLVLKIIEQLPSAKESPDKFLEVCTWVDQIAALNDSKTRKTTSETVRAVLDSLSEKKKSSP", "description": "as §1, §2"}, "[3]": {"molecular_target": "T3, LOX 3-4 M.6 (artificial (I-CreI derived))", "T3 chain": "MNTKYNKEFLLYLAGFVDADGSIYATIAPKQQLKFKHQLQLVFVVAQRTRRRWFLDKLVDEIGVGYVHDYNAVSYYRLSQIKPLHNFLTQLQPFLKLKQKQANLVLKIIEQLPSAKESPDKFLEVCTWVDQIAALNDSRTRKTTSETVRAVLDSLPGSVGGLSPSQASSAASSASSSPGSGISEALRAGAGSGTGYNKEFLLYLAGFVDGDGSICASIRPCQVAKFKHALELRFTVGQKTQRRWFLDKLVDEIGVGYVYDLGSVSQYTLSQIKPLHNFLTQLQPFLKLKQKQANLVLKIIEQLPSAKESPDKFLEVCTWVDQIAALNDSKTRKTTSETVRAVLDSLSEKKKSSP", "description": "as §1, §2"}, "[4]": {"molecular_target": "T4, LOX 3-4m.1781 (artificial (I-CreI derived))", "T4 chain": "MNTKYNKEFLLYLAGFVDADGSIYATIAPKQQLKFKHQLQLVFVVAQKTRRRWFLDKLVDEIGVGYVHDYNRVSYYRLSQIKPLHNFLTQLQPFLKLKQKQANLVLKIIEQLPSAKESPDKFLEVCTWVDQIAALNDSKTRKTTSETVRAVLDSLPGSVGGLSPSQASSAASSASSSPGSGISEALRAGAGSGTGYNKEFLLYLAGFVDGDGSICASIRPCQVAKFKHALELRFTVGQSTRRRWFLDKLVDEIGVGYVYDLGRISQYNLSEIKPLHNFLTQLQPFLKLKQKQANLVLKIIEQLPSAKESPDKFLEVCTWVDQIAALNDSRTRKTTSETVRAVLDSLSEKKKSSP", "description": "as §1\n(§3) Novel engineered meganucleases derived from the LOX 3-4x.109 meganuclease were prepared by making amino acid substitutions at one or more positions in the first subunit and one or more positions in the second subunit. These engineered meganucleases were then evaluated for cleavage of the LOX 3-4 recognition sequence modified to have a GCGA center sequence (SEQ ID NO: 314) in the CHO reporter assay according to Example 1."}, "[5]": {"molecular_target": "T5, LOX 3-4m.1745 (artificial (I-CreI derived))", "T5 chain": "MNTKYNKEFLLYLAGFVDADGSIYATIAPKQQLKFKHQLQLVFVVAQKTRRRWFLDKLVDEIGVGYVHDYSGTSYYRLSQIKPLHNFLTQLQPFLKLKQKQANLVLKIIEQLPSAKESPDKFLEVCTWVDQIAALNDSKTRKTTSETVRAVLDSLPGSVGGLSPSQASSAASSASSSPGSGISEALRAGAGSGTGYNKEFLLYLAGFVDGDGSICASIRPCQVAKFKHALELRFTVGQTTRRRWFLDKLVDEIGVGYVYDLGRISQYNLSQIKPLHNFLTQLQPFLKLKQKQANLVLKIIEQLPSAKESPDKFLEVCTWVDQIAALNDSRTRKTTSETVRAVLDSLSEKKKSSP", "description": "as §1, §3"}, "[6]": {"molecular_target": "T6, LOX 3-4m.1780 (artificial (I-CreI derived))", "T6 chain": "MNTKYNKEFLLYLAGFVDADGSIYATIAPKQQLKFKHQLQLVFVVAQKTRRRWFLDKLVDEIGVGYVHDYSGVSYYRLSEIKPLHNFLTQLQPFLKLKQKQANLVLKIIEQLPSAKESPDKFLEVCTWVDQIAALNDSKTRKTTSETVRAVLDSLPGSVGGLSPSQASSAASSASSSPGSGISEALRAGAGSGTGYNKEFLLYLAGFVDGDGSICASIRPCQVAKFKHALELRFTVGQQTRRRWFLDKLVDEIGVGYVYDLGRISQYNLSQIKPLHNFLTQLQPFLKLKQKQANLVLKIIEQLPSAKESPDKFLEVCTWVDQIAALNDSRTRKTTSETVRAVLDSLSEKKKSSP", "description": "as §1, §3"}, "[7]": {"molecular_target": "T7, LOX 3-4m.1782 (artificial (I-CreI derived))", "T7 chain": "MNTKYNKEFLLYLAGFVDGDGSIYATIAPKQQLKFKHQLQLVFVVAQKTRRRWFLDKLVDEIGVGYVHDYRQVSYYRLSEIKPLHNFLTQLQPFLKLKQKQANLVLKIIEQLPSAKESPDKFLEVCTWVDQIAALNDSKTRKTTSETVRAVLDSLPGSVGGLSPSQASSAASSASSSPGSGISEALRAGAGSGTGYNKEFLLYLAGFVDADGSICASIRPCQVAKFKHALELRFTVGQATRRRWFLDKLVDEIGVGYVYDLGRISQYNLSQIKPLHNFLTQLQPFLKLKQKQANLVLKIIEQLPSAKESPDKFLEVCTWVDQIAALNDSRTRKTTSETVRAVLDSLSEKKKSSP", "description": "as §1, §3"}, "[8]": {"molecular_target": "T8, LOX 3-4m.1601 (artificial (I-CreI derived))", "T8 chain": "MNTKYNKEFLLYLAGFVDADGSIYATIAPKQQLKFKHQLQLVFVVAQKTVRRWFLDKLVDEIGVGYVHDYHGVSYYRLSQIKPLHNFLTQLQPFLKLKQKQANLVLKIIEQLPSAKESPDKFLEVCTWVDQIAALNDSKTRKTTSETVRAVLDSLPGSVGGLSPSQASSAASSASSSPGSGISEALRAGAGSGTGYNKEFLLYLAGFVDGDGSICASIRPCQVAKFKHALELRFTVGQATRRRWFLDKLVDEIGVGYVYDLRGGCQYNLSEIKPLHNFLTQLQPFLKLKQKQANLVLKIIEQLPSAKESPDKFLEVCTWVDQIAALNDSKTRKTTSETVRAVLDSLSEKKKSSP", "description": "as §1\nas §2, with “first subunit and one or more positions in the second” for “first”, “GCAT” for “GTAA”, “292)” for “358)”, “1. The substitutions in each subunit are provided in Tables 151 and 152, respectively.” for “1.”, “continued to cleave” for “were capable of cleaving”"}, "[9]": {"molecular_target": "T9, LOX 3-4m.1687 (artificial (I-CreI derived))", "T9 chain": "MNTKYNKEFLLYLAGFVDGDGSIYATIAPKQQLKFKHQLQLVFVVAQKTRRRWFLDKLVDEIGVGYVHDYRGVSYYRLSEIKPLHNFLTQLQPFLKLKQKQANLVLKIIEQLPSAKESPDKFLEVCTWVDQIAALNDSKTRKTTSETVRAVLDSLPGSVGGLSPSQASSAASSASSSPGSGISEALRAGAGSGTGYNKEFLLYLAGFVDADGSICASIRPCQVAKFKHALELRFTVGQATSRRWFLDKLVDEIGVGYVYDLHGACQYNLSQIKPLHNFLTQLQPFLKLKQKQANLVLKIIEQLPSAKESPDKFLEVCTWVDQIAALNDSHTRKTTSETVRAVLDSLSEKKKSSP", "description": "as §1\nas §2, with “first subunit and one or more positions in the second” for “first”, “GCAT” for “GTAA”, “292)” for “358)”, “1. The substitutions in each subunit are provided in Tables 151 and 152, respectively.” for “1.”, “continued to cleave” for “were capable of cleaving”"}, "[10]": {"molecular_target": "T10, LOX 3-4m.1679 (artificial (I-CreI derived))", "T10 chain": "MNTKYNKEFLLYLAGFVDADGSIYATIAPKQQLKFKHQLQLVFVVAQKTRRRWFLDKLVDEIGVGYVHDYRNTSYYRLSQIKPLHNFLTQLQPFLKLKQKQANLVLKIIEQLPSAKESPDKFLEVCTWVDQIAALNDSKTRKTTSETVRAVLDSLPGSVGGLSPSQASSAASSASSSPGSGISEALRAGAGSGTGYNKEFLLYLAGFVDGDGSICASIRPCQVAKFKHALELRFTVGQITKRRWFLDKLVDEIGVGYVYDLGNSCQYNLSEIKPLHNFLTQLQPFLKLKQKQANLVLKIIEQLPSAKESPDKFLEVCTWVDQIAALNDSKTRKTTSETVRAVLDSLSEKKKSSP", "description": "as §1\nas §2, with “first subunit and one or more positions in the second” for “first”, “GCAT” for “GTAA”, “292)” for “358)”, “1. The substitutions in each subunit are provided in Tables 151 and 152, respectively.” for “1.”, “continued to cleave” for “were capable of cleaving”"}, "[11]": {"molecular_target": "T11, LOX 3-4m.1689 (artificial (I-CreI derived))", "T11 chain": "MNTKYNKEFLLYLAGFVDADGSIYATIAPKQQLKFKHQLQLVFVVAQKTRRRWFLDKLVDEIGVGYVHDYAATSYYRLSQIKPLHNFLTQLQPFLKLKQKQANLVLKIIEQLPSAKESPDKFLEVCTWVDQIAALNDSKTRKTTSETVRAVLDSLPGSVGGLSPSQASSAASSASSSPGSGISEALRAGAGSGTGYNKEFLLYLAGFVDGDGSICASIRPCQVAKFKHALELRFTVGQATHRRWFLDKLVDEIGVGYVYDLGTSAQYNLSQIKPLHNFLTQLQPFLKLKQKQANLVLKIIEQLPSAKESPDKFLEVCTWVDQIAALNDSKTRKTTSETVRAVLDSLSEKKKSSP", "description": "as §1\nas §2, with “first subunit and one or more positions in the second” for “first”, “GCAT” for “GTAA”, “292)” for “358)”, “1. The substitutions in each subunit are provided in Tables 151 and 152, respectively.” for “1.”, “continued to cleave” for “were capable of cleaving”"}}}
{"binder": "LOX 3-4 GTAA (dsDNA) DNA 1: GTATAGCATGTAATATACGAAG DNA 2: CTTCGTATATTACATGCTATAC", "values": [{"measurement": "activity", "setting": "[1]", "result": 11.5, "unit": "% GFP"}, {"measurement": "activity", "setting": "[2]", "result": 13.2, "unit": "% GFP"}, {"measurement": "activity", "setting": "[3]", "result": 11.4, "unit": "% GFP"}]}
{"binder": "LOX 3-4 GCGA (dsDNA) DNA 1: GTATAGCATGCGATATACGAAG DNA 2: CTTCGTATATCGCATGCTATAC", "values": [{"measurement": "activity", "setting": "[4]", "result": 6.58, "unit": "% GFP"}, {"measurement": "activity", "setting": "[5]", "result": 5.13, "unit": "% GFP"}, {"measurement": "activity", "setting": "[6]", "result": 6.53, "unit": "% GFP"}, {"measurement": "activity", "setting": "[7]", "result": 5.45, "unit": "% GFP"}]}
{"binder": "LOX 3-4 GCAT (dsDNA) DNA 1: GTATAGCATGCATTATACGAAG DNA 2: CTTCGTATAATGCATGCTATAC", "values": [{"measurement": "activity", "setting": "[8]", "result": 10.9, "unit": "% GFP"}, {"measurement": "activity", "setting": "[9]", "result": 10.9, "unit": "% GFP"}, {"measurement": "activity", "setting": "[10]", "result": 10.8, "unit": "% GFP"}, {"measurement": "activity", "setting": "[11]", "result": 11.2, "unit": "% GFP"}]}
